This is an account of results in the nanobody polyreactivity screen of Harvey et al. (2022).

The data set is described as follows: yeast display, Sf9 membrane polyspecificity reagent, FACS + sequencing; frameworks hold sequencing errors. The method, boiled down:
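After 36–48 hours of galactose induction, yeast (Saccharomyces cerevisiae BJ5465) displaying a synthetic nanobody library were stained at 4 °C for 1 hour with 10% biotinylated, detergent-solubilized Sf9 membrane reagent. Streptavidin microbeads enriched the stained cells before FACS sorting into low and high (top ~1%) gates on anti-HA and streptavidin fluorescence. Each clone's polyreactivity label reflects its gate of origin.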
For “QVQLVESGGGLVQAGGSLRLSCAASGFILDNYAMGWYRQAPGKERELVAAISGSGGSTFYADSVKGRFTISRDNAKNTVYLQMNSLKSEDTAVYYCNRDRLLRQYDYWGQGTQVTVSS”, the “polyreactivity (PSR sort gate)” value was “high polyreactivity”.
In the case of “QVQLVESGGGLVQAGGSLRLSCAASGFILDTYGMGWYRQAPGKERELVAAISQSDVSTYYADSVKGRFTISRYNAKNTVYLQMNSLKPEDTAVYYCAADRAGLRWFWQVLYDYWGQGTQVTVSS” it was “low polyreactivity”; in that of “QVQLVESGGGLVQAGGSLRLSCAASGFILGLNAMGWYRQAPGKEREFVADISWSGDSTYYADSVKGRFTISRDNAKNTVYLQMNSLKPEDTAVYYCAADPYYNWCYYYWGQGTQVTVSS”, “low polyreactivity”.
For the sequence “QVQLVESGGGLVQAGGSLRLSCAASGFILGQYAMGWYRQAPGKERELVAAISGSSSTTYADCVKGRFTISRDNAKNTVYLQMNSLKPEDTAVYYCAAYYWYVTYFRREIAYEYWGQGTQVTVSS”, the “polyreactivity (PSR sort gate)” value was “low polyreactivity”.
Turning to “QVQLVESGGGLVQAGGSLRLSCAASGFILGWYAMGWYRQAPGKERELVADISASGTRTYYADSVKGRFTISRDNAKNTVYLQMNSLKPEDTAVYYCNVYTKFVYAYDYWGQGTQVTLSS”, the “polyreactivity (PSR sort gate)” value is given as “high polyreactivity”.
Then “QVQLVESGGGLVQAGGSLRLSCAASGFILGYNAMGWYRQAPGKERELVADITFSGGGTNYADSVKGRFTISRDNAKNTVYLQMNSLKPEDTAVYYCNAAAFSQLRVRYDYWGQGTQVTVSS”, with “low polyreactivity”.
Turning to “QVQLVESGGGLVQAGGSLRLSCAASGFILKYNAMGWYRQAPGKERELVAAISSNGGRTYYADSVKVRFTISRDNAKNTVYLQMKSLKPEDTAVDYCAAGRLQPVLGGYWGQGSQVTVSS”, the “polyreactivity (PSR sort gate)” value is “low polyreactivity”.
For “QVQLVESGGGLVQAGGSLRLSCAASGFILKYYAMGWYRQAHGKERELVAAITVSGGSTYYADSVKGRFTISRDNAKNTFYLQMNSLKPEDTAVYYCNADYPRGGAGLLDYWGQGTQVTVSS”, the “polyreactivity (PSR sort gate)” value is “low polyreactivity”.
Then “QVQLVESGGGLVQAGGSLRLSCAASGFILPHNAMGWYRQAPGKERELVAAISGSGGSTYYADSVKGRFTISRDNAKNTVYLQMNSLKPEDTAFYYCNADVWVYPYDYWGQGTQVTVSS”, with “low polyreactivity”; and “QVQLVESGGGLVQAGGSLRLSCAASGFILRYYAMGWYRPAPGNERELVAAISSGGGTYYADSVKGRFTISRDNAKNTVYLQMNSLKPEDTAVYYCNKASTSYYRFNYWGQGTQVTVSS”, with “high polyreactivity”.
In the case of “QVQLVESGGGLVQAGGSLRLSCAASGFILSNYAMGWYRQAPGKERELVAAIRWSGGSTYYADSVKGRFTISRDYAKNTVYLQMNSLKPEDTAVYYCNKVRPFSWYGLDYWGQGTQVTVSS” it was “high polyreactivity”; in that of “QVQLVESGGGLVQAGGSLRLSCAASGFILSPNTMGWYRPAPGKERELVAAISTDVSTYADSVKGRFTISRDNAKNTVYFQMNSLKPEDTAVYYCNADDFGYASYEYWGQGTQVTVSS”, “low polyreactivity”.
As to “QVQLVESGGGLVQAGGSLRLSCAASGFILYDYAMGWYRQAPGKEREFVAAISWSGGRTYYADSVKGRFTISRDNAKNTVYLLLNSLNPEASAVYYCAVDAYRYWWTTYVSDFDYWGQGTQLTVSS”, the “polyreactivity (PSR sort gate)” value was “high polyreactivity”.
Then “QVQLVESGGGLVQAGGSLRLSCAASGFILYSYAMGWSRQAPGKEREFVSVISRGGGRTYYADSVKGRFTISRDNAKNTVYLQMNSLKPEDTAVYYCAAGSRSPHWYTRELDYWGQGTQVTVSS”, with “low polyreactivity”; and “QVQLVESGGGLVQAGGSLRLSCAASGFILYYYAMGWSRQAPGKERELVAAISWSGDSTYYADSVKGRFTISRDNAKNTVYLQMNSLKPEDTAVYYCAATWQLTHRYYWGQGTQVTVSS”, with “low polyreactivity”.
With “QVQLVESGGGLVQAGGSLRLSCAASGFISAGYAMGWYRQAPGKERELVAAITRTGSTNYADSVKGRFTISRDNAKNTVYLQMNSLKPEDTAVYYCAAGRRGSAGYYRQFGYGYWGQGTQVTVSS”, the “polyreactivity (PSR sort gate)” value is “high polyreactivity”.
In the case of “QVQLVESGGGLVQAGGSLRLSCAASGFISAYNAMGWYRPAPGKERELVAAITSGATTKYADSVKGRFTISRDNAKNTVYFQMHSLKPEDTAVYYCAAAPKRRYYVHSGGAYGYWGQGTQVTVSS” it was “high polyreactivity”.
As to “QVQLVESGGGLVQAGGSLRLSCAASGFISDVYAMGCYRQAPGKERELVAVITWRGSTYYAYSVKGRFTISRDNAKNTVYLQMNSLKPEDTAVYYCAAESQGDWAFDYWGQGTQVTVSS”, the “polyreactivity (PSR sort gate)” value was “low polyreactivity”.
Then “QVQLVESGGGLVQAGGSLRLSCAASGFISFAYAMGWYRQAPGKERELVAGISRSGDSTYYADSVKGRFTISRDNAKNTVYLQMNSLKPEDTAVYYCAVVTYRSKAHSSRNGKYYYWGQGTQVTVSS”, with “low polyreactivity”; and “QVQLVESGGGLVQAGGSLRLSCAASGFISFGNAMGWYIQAPGKERELVAGISRSGGSTYYADSVKGRFTISRDNAKNTVYLQMYSLKPEDTAVYYCATRVAIYPYRFDYWGQGTQVTVSS”, with “high polyreactivity”.
As to “QVQLVESGGGLVQAGGSLRLSCAASGFISGYYTMRWYRQAPGKERELVAVINSGGSTYYADSVKGRFTISRDNAKNTVYFQMNSLKPEDTAVYYCAKLGGKYSRYYYWGHGTQVTVSS”, the “polyreactivity (PSR sort gate)” value is on record as “low polyreactivity”.
Then “QVQLVESGGGLVQAGGSLRLSCAASGFISPKYGMGWYRQAPGKERELVAAITPSDGSTSYADSVKGRFTISRDNAKNTVYLQMNSLKPEDTAVYYCNKSRYKSYSYDYWGQGTQVTVSS”, with “high polyreactivity”.
As for “QVQLVESGGGLVQAGGSLRLSCAASGFISPSYAMGWYRPAPGKERELVAAIRSSDGSTYYADSVKGRFTISRDNAKNTVYLQMNSLKPEDTAVYYCAAGGSYYRDDYWGQGTQVTVSS”, the “polyreactivity (PSR sort gate)” value is “low polyreactivity”.
Then “QVQLVESGGGLVQAGGSLRLSCAASGFISPSYDMGWYRQAPGKEWELVAAIRSSDGSTYYADSVKGRFTISRDNAKNTVYLQMNSLKPEDTAVYYCNKGVVLTLYVGMDYWGQGTQVTVSS”, with “low polyreactivity”; and “QVQLVESGGGLVQAGGSLRLSCAASGFISRKNAMGWYRQAPGKERELVAAISKSGGRTYYADSVKGRFTISRDNAKNTVYLQMNSLKPEDTAVYYCNRVPRDSWPYAWYDYWGQGTQVTVSS”, with “high polyreactivity”.
Take “QVQLVESGGGLVQAGGSLRLSCAASGFISTPYAIGWYRQAPGKERELVAAIDISGGRTYYADSVKGRFTISRDNAKNTVYLQMNSLKPEDTAVYDCAAQLVSSYYAWYRTYYYWGQGTQVTVSS”: the “polyreactivity (PSR sort gate)” value is “high polyreactivity”.
Then “QVQLVESGGGLVQAGGSLRLSCAASGFISYTYMGWYRQAPGKERELVAGITGSGGSTYYADSVKGRFTISRDNAKNTVYLQMNILKPEDTAVYYCAAPRYLSYVRRYDYWGQGTQVTVSS”, with “high polyreactivity”; and “QVQLVESGGGLVQAGGSLRLSCAASGFISYYYAMGWYRQAPGKDWELVAVITSGGSTDYADSVKGRFTISRDHAKNTVYLQMNSLKPEDTAVYYCARDDPASHKRYWHDYWGQGTQVTVSS”, with “low polyreactivity”; and “QVQLVESGGGLVQAGGSLRLSCAASGFISYYYAMGWYRQAPGKEREFVAAITSSGGSTRYADSVKGRFTISRDNAKNTVYLQMNSLKPEDTAVYYCAAGNPYFWPYDYWGQGTQVTVSS”, with “low polyreactivity”.
On to “QVQLVESGGGLVQAGGSLRLSCAASGFIVDWYTRGWYRQAPGKERELVARISSDGSTTYADSVKGRFTISRDNAKNTVSVQMTSLKPEDTAVYYCAADVTYPGLKYIFDDWGQGTQVTVTS”, for which the “polyreactivity (PSR sort gate)” value is “low polyreactivity”.
